T1: fragment C of tetanus toxoid (Sigma, T3694) (Clostridium tetani, UniProt P04958 865-1315)
T1 sequence: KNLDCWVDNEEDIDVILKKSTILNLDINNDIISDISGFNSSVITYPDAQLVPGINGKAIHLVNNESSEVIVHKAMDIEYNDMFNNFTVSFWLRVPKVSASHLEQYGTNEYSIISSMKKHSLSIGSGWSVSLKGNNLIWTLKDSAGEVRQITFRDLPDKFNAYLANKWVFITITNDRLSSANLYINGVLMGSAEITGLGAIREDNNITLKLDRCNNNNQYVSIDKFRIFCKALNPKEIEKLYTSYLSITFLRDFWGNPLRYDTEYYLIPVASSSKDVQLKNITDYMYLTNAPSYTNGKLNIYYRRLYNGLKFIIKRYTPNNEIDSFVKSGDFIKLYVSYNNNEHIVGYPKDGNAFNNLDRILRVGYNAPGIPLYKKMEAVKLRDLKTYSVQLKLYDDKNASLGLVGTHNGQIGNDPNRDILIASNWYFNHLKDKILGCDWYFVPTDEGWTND

B1: Antibody 4 (human monoclonal antibody against tetanus toxin) (antibody, V domains shown)
VH: EVQLVESGGGLVQPGGSLRLSCAASGFSFSRHWMSWVRQAPGKGLEWVANIHYDLSEKYFVDSVRGRFTISRDNAKNSLYLEMNSLRADDTAVYYCARGGRSTVWPRGWFDLWGQGTLVTVSS
VL: EIVLTQSPGTLSLSPGERATLSCRASQSVSSSYLAWYQQKPGQAPRLLIYGASGRATGIPDRFSGSGSGTHFTLTISRLEPEDFAVYFCQQFADSRTFGQGTKLEIKR
B2: Antibody 5 (human monoclonal antibody against tetanus toxin) (antibody, V domains shown)
VH: QLVQSGAEVKKPGSSVKVSCKASGGTLSGFAINWVRQAPGQGLEWMGGIIPDTGSPTYVQRFQGRVTMTADKSTSTAYMELNSLRSDDTAVYYCARSVMITFGGVLTPPNFDFWGQGTLVTVSS
VL: DIQMTQSPSSLSASVGDRVTISCRASQAISIYLNWYQQRPGKAPRLLIYAASNLQSGVPSRFSASGSGTDFTLTISSLQPEDFATYYCQQSKENPPTFGQGTKLEIKR

Molecular target: T1, fragment C of tetanus toxoid (Sigma, …)

| Binder | Kd |
| --- | --- |
| B1 | 34 nM |
| B2 | 0.16 nM |
